This note sets out measurements from patent US20220031842A1 (JIANGSU HENGRUI MEDICINE, published 2022).

By Kd is commonly meant the equilibrium constant for the complex coming apart. A low value points to higher affinity. For orientation: IC50 means the midpoint of a concentration-inhibition curve. Higher therefore signals lower potency. A word on the EC50: it is the concentration giving half of the maximal effect. A high value points to a need for much substance.

Assay [1] concerns the target T1, LAG-3 extracellular domain with a Flag tag (human, UniProt P18627 23-434).
T1 construct: also called LAG-3-Flag; LAG-3-Flag antigen
T1 sequence: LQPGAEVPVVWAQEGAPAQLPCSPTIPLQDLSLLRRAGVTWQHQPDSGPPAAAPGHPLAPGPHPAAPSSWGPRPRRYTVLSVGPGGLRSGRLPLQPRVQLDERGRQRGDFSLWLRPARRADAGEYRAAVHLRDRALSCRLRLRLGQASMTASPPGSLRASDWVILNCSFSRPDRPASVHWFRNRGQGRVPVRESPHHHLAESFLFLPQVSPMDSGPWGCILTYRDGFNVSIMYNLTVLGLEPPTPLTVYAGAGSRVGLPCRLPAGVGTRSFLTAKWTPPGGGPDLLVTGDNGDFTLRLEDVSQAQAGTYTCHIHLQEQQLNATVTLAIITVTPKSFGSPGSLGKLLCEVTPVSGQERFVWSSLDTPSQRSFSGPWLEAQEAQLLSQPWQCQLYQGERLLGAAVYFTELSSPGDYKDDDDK
The assay can be described thus: SPR (Biacore), antibody captured on anti-human capture chip, LAG-3-Flag in flow. The text has this: 2. […] Then, the LAG-3-Flag antigen (produced in-house, SEQ ID NO:1) was flowed through the surface of the biochip, and the reaction signal was detected real time using a Biacore instrument to obtain the binding and dissociation curves, the value of affinity was obtained by fitting, see table 10 below. After each cycle of dissociation was finished in the experiment, the biochip was washed and regenerated with a regeneration solution provided in the human anti-capture kit.

In assay [2] the target is T2, Fusion protein of LAG-3 extracellular region and hIgG1 Fc (human).
T2 construct: Limits of the signal peptide are marked only by lost underlining; also called LAG-3-Fc; LAG-3-Fc fusion protein
The assay can be described thus: competition: biotin-LAG-3-Fc binding to fixed Daudi cells, antibody titrated. On the procedure: Daudi cells (human leukemia cells, purchased from the cell bank in Chinese Academy of Sciences) were seeded in 96-well plate with a density of 3×10⁵/well. After centrifugation at 1000 rpm, the supernatant was discarded and then the plate was fixed with 4% PFA for 30 min at room temperature. The plate was washed 4 times with PBS after discarding the fixed solution, and the plate was blocked with 200 μl/well of blocking solution containing 5% skim milk (Bright Dairy, skim milk powder) diluted in PBS, and incubated at 37° C. for 2.5 hours. After blocking, the blocking solution was discarded and the plate was washed 5 times with PBST buffer (pH7.4 PBS containing 0.05% tween-20), added with 50 μl/well mixture of biotin-labeled (Biotin labeling kit, Dojindo Chemical, Cat No. LK03) LAG-3-Fc fusion protein (produced in-house, SEQ ID NO: 3) and gradient concentrations of the antibody to be tested, wherein the biotin-labeled LAG-3-Fc fusion protein has been diluted with sample diluent (PH7.4 PBS containing 1% BSA) at a final concentration of 0.4 μg/ml, and pre-mixed for an hour, then the plate was incubated at 37° C. for 1 h. […] The OD value at a wavelength of 450 nm was read on NOVOStar microplate reader, and then the activity of the LAG-3 antibody in blocking the binding of the antigen to Daudi cells was calculated.

Assay [3] has as its target T1, LAG-3 extracellular domain with a Flag …. The assay can be described thus: SPR (Biacore), antibody captured on anti-mouse capture chip, LAG-3-Flag in flow. An excerpt: 1. […] Then, the LAG-3-Flag antigen (produced in-house, SEQ ID NO:1) was flowed through the surface of the biochip, and the reaction signal was detected in real time by using a Biacore instrument to obtain the binding and dissociation curves, the value of affinity was obtained by fitting, see above table 2. After each cycle of dissociation was finished in the experiment, the biochip was washed and regenerated with a regeneration solution provided in the mouse anti-capture kit.

In assay [4] the target is T2, Fusion protein of LAG-3 extracellular …. The assay can be described thus: competition: biotin-LAG-3-Fc binding to fixed Daudi cells, antibody titrated. The gist of the method: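 Daudi cells were PFA-fixed and blocked, then given 0.4 μg/ml (final) biotin-LAG-3-Fc premixed for 1 h with titrated antibody, and incubated 1 h at 37° C. Bound fusion protein was detected with HRP-streptavidin and TMB, read at OD450. Antibody blocking of antigen binding to the cells was calculated from the signal.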
The source holds these as a separate data set.
Target sequence in this assay (chain, as listed by the source limits assumed): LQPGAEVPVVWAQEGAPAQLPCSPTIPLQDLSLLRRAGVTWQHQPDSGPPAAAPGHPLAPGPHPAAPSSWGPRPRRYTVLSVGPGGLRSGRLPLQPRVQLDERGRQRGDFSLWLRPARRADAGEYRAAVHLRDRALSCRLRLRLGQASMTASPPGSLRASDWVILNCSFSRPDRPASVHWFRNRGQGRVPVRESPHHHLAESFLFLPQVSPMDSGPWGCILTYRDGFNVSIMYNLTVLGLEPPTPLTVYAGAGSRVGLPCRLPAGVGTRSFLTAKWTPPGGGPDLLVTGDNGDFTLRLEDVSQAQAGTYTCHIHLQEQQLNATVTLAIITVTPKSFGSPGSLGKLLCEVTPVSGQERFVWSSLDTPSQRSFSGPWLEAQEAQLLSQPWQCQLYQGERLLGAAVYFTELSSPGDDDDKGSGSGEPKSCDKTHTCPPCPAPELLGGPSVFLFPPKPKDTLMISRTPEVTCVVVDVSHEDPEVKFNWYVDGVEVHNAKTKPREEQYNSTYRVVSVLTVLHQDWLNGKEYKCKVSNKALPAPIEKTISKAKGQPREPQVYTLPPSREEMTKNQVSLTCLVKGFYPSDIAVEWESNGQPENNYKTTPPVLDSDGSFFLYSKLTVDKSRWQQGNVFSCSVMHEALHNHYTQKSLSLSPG

Assay [5] shares this target. The assay can be described thus: ELISA, LAG-3-Fc captured by anti-human Fc on plate (which fusion: inferred). An excerpt: (§1) The binding ability of anti-LAG-3 antibody to human LAG-3 protein was detected by ELISA assay. LAG-3 fusion protein with Fc or mFc tag was immobilized into 96-well microtiter plate by binding to anti-Fc or anti-mFc antibody coated on the microtiter plate, the strength of the signal after the addition of the antibody was used to determine the binding activity of the antibody to LAG-3, the specific experimental method is as follows.
(§2) The goat anti-human Fc antibody (Jackson Immuno Research, Cat No. 109-005-008) or goat anti-mouse Fc antibody (Sigma, Cat No. M3534-1ML) was diluted to a concentration of 2 μg/ml with PBS buffer at pH 7.4 (Sigma, Cat No. P4417-100TAB), and added to a 96-well plate at a volume of 50 μl/well and then, the plate was incubated in the incubator at 37° C. for 2 hours. After discarding the liquid, the plates were blocked with 200 μl/well of blocking solution containing 5% skim milk (Bright Dairy, skim milk powder) in PBS, and incubated in the incubator at 37° C. for 2.5 hours or overnight at 4° C. (16-18 hours). After blocking, the blocking solution was discarded and the plate was washed 5 times with PBST buffer (PH7.4 PBS containing 0.05% tween-20). […]
A general note: An ELISA detects its analyte on a solid surface through an enzyme-linked reagent.

The target is the same in assay [6]. The assay is described as above.
Excerpt: as §1, §2
The source holds these as a separate data set.

Where two headings read alike, the source gives them in different places.

B1: mAb229 (antibody, V domains shown)
VH: QIQLVQSGPELKKPGETVKISCKASGYTFTTSGMSWVKQAPGKGLKWMGWINTYSGVPTYADDFKGRFAFSLETSASTAYLQINNLKNEDTATYFCARDNYDARDVYYYAMDYWGQGTSVTVSS
VL: DIQMTQSPASLSVSVGETVTITCRASENIYSNLAWYQQKQGKSPQLLVYAATNLADGVPSRFSGSGSGTQYSLKINSLQSEDFGSYYCQHFWITPWTFGGGTKLEIK
notes: Murine hybridoma antibody; also called LAG-3 antibody mAb229; hybridoma clone mAb229
On to B1, for which the Kd was 0.0172 nM in assay [1] and 0.426 nM in assay [3]. In addition, the IC50 in assay [2] and in assay [4] was 1.33 nM throughout. Moreover, the EC50 in assay [5] and in assay [6] was 0.129 nM each time.

B2: mAb303 (antibody, V domains shown)
VH: EVQLQQSGPVLVKPGASVKMSCKASGYTLTDYYMNWVKQSHGKSLEWIGVINPYNGDTAYNQKFKGKATLTVDKSSNTAYMEINSLTSEDSAVYYCTRDDGYYDYYFDVWGTGTTVTVSS
VL: DIQMTQSPSSLSASLGERVILTCRASQDIGSRLNWLQQGPDGTFKRLIYATSTLDSGVPKRFSGSRSGSDFSLTISSLESEDFVDYYCLQLASSPPTFGGGTKLEIK
notes: Murine hybridoma antibody; also called LAG-3 antibody mAb303; hybridoma clone mAb303
With B2, the results for the Kd in assay [1] and in assay [3] were 0.0749 nM and 0.47 nM, respectively. In addition, the IC50 in assay [2] and in assay [4] was 0.596 nM throughout. Moreover, the EC50 in assay [5] and in assay [6] was 0.172 nM throughout.
